Biological target: VaERF16-GFP (Vitis amurensis 'Shuang You')

dual-luciferase assay in tobacco leaves: activation of the VaPDF1.2 promoter (LUC/REN) by 62-SK-VaERF16 and 62-SK-VaMYB306 co-expressed (untagged full-length effectors): 3.5 fold
Substance: VaMYB306-HA (natural protein)
